Entries after “also recorded” stand apart in the source; their conditions may differ. Peptide text beside a SMILES is read from it.
Columns and labels:
[1] = system: tyrosine phosphorylation of FRS2α and downstream activation of MAP kinase cascade; assay: Phosphorylation of FRS2α and 44/42 MAP kinase in HEK293-Klotho cells; assay type: cell-based; settings: for inhibition of FGF23-induced phosphorylation of FRS2α and MAP kinase activation: FGF23^28-251 1 nM, 10 min
Protocol: Subconfluent HEK293-Klotho cells (Kurosu et al., “Regulation of Fibroblast Growth Factor-23 Signaling by Klotho,” J Biol Chem 281(10):6120-6123 (2006), which is hereby incorporated by reference in its entirety) were serum starved for 16 h and then stimulated for 10 min with either FGF23^28-251 (0.33 to 10 nM) or FGF23^180-251 (0.76 to 76.3 nM). In parallel experiments, cells were stimulated with FGF23^28-251 (1 nM) alone or with FGF23^28-251 (1 nM) mixed with increasing concentrations of either FGF23^180-251 (0.76 to 76.3 nM) or FGF23^180-205 (0.1 to 10 μM). Cell stimulation with FGF2 (2.9 nM) alone or FGF2 (2.9 nM) mixed with increasing concentrations of FGF23^180-251 (0.76 to 76.3 nM) served as controls. Similarly, subconfluent cells of a CHO cell line stably expressing Klotho (Imura et al., “Secreted Klotho Protein in Sera and CSF: Implication for Post-translational Cleavage in Release of Klotho Protein from Cell Membrane,” FEBS Lett 565(1-3):143-147 (2004), which is hereby incorporated by reference in its entirety) were treated with either FGF23^28-251 (0.067 to 20 nM) or FGF23^28-200 (0.04 to 12 nM).
In a separate experiment, the biological activity of the bacterially expressed FGF23^28-251 protein was compared to that of FGF23^25-251 expressed in the mouse myeloma cell line NS0 (R&D Systems). Subconfluent HEK293-Klotho cells were serum starved, and then treated with either of the two FGF23 proteins.
After stimulation, the cells were lysed (Kurosu et al, “Suppression of Aging in Mice by the Hormone Klotho,” Science 309(5742):1829-1833 (2005), which is hereby incorporated by reference in its entirety), and cellular proteins were resolved on SDS-polyacrylamide gels, transferred to nitrocellulose membranes, and the protein blots were probed with antibodies to phosphorylated FGF receptor substrate-2α (FRS2α), phosphorylated 44/42 MAP kinase and non-phosphorylated 44/42 MAP kinase, and Klotho. Except for the anti-Klotho antibody (Kato et al., “Establishment of the Anti-Klotho Monoclonal Antibodies and Detection of Klotho Protein in Kidneys,” Biochemical Biophysical Res Communications 267(2):597-602 (2000), which is hereby incorporated by reference in its entirety), all antibodies were from Cell Signaling Technology.

[2] = system: Hyp mice; assay: Urine and serum phosphate in Hyp mice after IP injection; assay type: in vivo, mouse; settings: vs vehicle; for serum phosphate: IP, FGF23^180-251 1 mg or FGF23^180-205 860 μg
From the text: (§1) The anti-phosphaturic activity of FGF23 C-terminal peptides was examined in normal Sprague-Dawley rats and in Hyp mice, a mouse model of human X-linked hypophosphatemia (XLH) (Beck et al., “Pex/PEX Tissue Distribution and Evidence for a Deletion in the 3′ Region of the Pex Gene in X-linked Hypophosphatemic Mice,” J Clin Invest 99(6):1200-1209 (1997), Eicher et al., “Hypophosphatemia: Mouse Model for Human Familial Hypophosphatemic (Vitamin D-resistant) Rickets,” Proc Natl Acad Sci USA 73(12):4667-4671 […], Strom et al., “Pex Gene Deletions in Gy and Hyp Mice Provide Mouse Models for X-linked Hypophosphatemia,” Hum Mol Genet. 6(2):165-171 (1997), which are hereby incorporated by reference in their entirety). The animals were fed a complete, fixed formula diet containing 0.94% phosphate. Anesthetized rats (220-250 g body weight) were administered IV either FGF23^28-251 (0.1 μg kg body weight^−1) or FGF23^180-251 (0.1 μg kg body weight^−1) or vehicle. Before and 3 h after the injection, blood was drawn from the carotid artery and urine was collected through bladder catheterization. Plasma and urine chemistry of animals were analyzed using Vitros Chemistry Analyzer (Ortho-Clinical Diagnosis). 10- to 15-week old Hyp mice were fasted for 8-12 h before administering IP either FGF23^180-251 (1 mg) or FGF23^180-205 (860 μg) or vehicle. Before and 2 h, 4 h, 8 h, and 24 h after the injection, urine and serum samples were collected. Phosphate concentrations in urine and serum were determined using Phosphorus Liqui-UV Test (Stanbio Laboratory), and urine creatinine levels were measured using DetectX™ Urinary Creatinine Detection Kit (LuminosAssays).

[3] = system: Sprague-Dawley rats; assay: Plasma and urine phosphate in Sprague-Dawley rats after IV injection; assay type: in vivo, rat; settings: IV 0.1 μg kg body weight^−1, 3 h, healthy rats
From the text: as §1

Molecule | inhibition of FGF23-induced phosphorylation of FRS2α and MAP kinase activation [1] | serum phosphate [2] | inhibition of FGF2-induced phosphorylation of FRS2α and MAP kinase activation ([1]; FGF2 2.9 nM) | FGFR activation (FRS2α and 44/42 MAP kinase phosphorylation as readouts) ([1]; peptide alone / with FGF23) | excretion rate and fractional excretion of phosphate [3] | plasma phosphate [3] | renal phosphate excretion ([2]; IP 1 mg)
CSCC[C@H](NC(=O)[C@H](CCCNC(=N)N)NC(=O)[C@H](C)NC(=O)[C@H](CCCNC(=N)N)NC(=O)[C@@H]1CCCN1C(=O)[C@H](CCCCN)NC(=O)[C@H](CC(C)C)NC(=O)[C@@H](NC(=O)[C@H](CC(N)=O)NC(=O)[C@H](CC(C)C)NC(=O)[C@@H]1CCCN1C(=O)[C@H](CC(=O)O)NC(=O)[C@H](CCCNC(=N)N)NC(=O)[C@H](CCC(=O)O)NC(=O)[C@H](CO)NC(=O)[C@H](CC(=O)O)NC(=O)[C@H](CC(=O)O)NC(=O)[C@H](CCC(=O)O)NC(=O)[C@H](C)NC(=O)[C@@H](N)CO)C(C)C)C(=O)N[C@H](C(=O)N1CCC[C@H]1C(=O)N[C@@H](C)C(=O)N1CCC[C@H]1C(=O)N[C@@H](C)C(=O)N[C@@H](CO)C(=O)O)[C@@H](C)O [FGF23^180-205] (H-SAEDDSERDPLNVLKPRARMTPAPAS-OH; N-terminus and C-terminus assumed) | inhibited, in a dose-dependent fashion | increase | – | – | – | – | –
FGF23^180-251: 72-amino acid C-terminal tail of human FGF23 (S180 to I251), expressed in E. coli (protein, listed as Homo sapiens) SAEDDSERDPLNVLKPRARMTPAPASCSQELPSAEDNSPMASDPLGVVRGGRVNTHAGGTGPEGCRPFAKFI | inhibited, in a dose-dependent fashion | elevated | failed to inhibit | had no activity alone; also recorded: functioned as an antagonist | renal phosphate retention; also recorded: decreased | induced hyperphosphatemia | decrease
FGF23^28-251: human FGF23 (A28 to I251), bioactive full-length ligand expressed in E. coli (protein, listed as Homo sapiens) ASPLLGSSWGGLIHLYTATARNSYHLQIHKNGHVDGAPHQTIYSALMIRSEDAGFVVITGVMSRRYLCMDFRGNIFGSHYFDPENCRFQHQTLENGYDVYHSPQYHFLVSLGRAKRAFLPGMNPPPYSQFLSRRNEIPLIHFNTPIPRRHTRSAEDDSERDPLNVLKPRARMTPAPASCSQELPSAEDNSPMASDPLGVVRGGRVNTHAGGTGPEGCRPFAKFI | – | – | – | – | increased | significant decrease; also recorded: induced hypophosphatemia | –

Source: patent US8889621B2, “Inhibiting binding of FGF23 to the binary FGFR-Klotho complex for the treatment of hypophosphatemia” (New York University, priority 2009, dated 2014)
